Measured values as given in patent US20150329638A1 (Biogen, published 2015).

T1: human DR6 (Death Receptor-6, TNFRSF21) (human, UniProt O75509 42-655)
T1 sequence: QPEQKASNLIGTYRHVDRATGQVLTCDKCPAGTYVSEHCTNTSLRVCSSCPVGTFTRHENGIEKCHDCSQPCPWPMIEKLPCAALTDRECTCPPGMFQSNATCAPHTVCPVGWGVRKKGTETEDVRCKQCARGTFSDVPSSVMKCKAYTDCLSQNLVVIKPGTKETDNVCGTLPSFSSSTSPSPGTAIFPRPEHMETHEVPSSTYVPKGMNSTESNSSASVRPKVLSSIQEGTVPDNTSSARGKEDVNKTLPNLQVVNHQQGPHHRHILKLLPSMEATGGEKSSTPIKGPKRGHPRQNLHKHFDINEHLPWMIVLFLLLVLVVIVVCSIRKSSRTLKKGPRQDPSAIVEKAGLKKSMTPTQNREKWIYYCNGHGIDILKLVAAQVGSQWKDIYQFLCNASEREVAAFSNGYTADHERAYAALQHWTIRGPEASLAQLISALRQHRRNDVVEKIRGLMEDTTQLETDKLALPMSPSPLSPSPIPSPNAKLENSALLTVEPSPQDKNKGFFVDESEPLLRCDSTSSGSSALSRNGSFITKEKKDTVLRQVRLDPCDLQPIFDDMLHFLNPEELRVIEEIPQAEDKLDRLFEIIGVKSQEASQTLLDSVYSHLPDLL

T2: rat DR6 (rat, UniProt D3ZF92 42-655)
T2 construct: Full length rat DR6 expressed on transfected HEK293 cells
T2 sequence: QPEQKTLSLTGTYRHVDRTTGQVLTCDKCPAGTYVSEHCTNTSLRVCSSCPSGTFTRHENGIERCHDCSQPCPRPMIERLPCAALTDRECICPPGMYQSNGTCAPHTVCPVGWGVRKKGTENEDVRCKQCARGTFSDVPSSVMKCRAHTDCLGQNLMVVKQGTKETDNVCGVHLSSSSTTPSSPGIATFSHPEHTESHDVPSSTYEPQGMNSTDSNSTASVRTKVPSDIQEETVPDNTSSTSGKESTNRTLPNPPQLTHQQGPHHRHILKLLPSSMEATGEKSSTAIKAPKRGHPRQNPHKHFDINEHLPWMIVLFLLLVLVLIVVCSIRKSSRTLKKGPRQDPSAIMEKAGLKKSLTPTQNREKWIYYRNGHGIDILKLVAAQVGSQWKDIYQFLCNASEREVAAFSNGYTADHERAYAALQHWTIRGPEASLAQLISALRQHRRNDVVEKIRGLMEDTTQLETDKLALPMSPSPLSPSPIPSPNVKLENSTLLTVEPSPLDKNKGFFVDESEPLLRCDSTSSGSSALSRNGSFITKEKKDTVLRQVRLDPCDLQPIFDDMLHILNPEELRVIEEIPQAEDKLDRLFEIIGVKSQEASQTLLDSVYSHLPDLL

T3: mouse DR6 (mouse, UniProt Q9EPU5 42-655)
T3 sequence: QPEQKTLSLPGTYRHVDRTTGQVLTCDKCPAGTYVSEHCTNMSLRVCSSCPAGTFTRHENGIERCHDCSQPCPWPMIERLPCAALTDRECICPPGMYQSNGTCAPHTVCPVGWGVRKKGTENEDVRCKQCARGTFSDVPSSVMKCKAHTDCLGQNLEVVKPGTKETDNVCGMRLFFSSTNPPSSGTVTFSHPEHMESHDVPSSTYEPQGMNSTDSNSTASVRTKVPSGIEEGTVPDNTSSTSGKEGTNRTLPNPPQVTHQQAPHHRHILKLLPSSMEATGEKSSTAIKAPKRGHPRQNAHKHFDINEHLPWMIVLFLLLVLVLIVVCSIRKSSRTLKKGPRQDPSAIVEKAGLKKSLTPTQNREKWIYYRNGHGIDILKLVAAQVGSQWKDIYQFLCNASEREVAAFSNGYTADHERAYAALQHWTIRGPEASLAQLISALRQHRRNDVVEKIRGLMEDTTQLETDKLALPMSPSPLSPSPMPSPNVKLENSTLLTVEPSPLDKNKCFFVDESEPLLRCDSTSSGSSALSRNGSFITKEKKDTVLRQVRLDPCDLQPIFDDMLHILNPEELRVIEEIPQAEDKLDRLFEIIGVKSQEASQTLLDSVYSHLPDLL


Assays:
[1] = molecular target: T1, human DR6 (Death Receptor-6, TNFRSF21); assay: FACS direct binding on transiently transfected HEK293 cells
Description: (§1) The apparent Kd of 5D10 and M53-E04 for rat and human DR6 was estimated using transiently transfected HEK293 cells in a FACS direct binding assay. Approximately 50,000 cells in 150 uL of PBS, 1% BSA, 0.1% NaN3 (FACS buffer) were analyzed. Cells were pelleted and resuspended in 150 uL of serial dilutions of the antibodies in FACS buffer. Samples were incubated for 1 hr on ice with occasional agitation and then washed 3 times. Bound antibodies were visualized with PE-labeled goat F(ab)2 anti-human or anti-mouse Fab specific antibody (Jackson Labs).
(§2) The binding affinities of 5D10 or M53-E04 to cyno monkey DR6 were similar to human DR6. A single point mutation (Y93A) was introduced to 5D10 based on the co-crystal structure of DR6-5D10 (FIG. 6).

rat DR6 [2] = molecular target: T2, rat DR6; assay: as above
Description: as §1, §2

mouse DR6 = molecular target: T3, mouse DR6; assay: flow cytometry on HEK293 cells transfected with full length DR6
Description: Six million HEK293 cells were transfected with 10 ug of plasmid DNA, which encoded full length human, rat, or mouse DR6. Three days after transfection, approximately 50,000 cells in 200 μL of PBS, 1% BSA, 0.1% NaN3 (FACS buffer) were analyzed. Cells were pelleted and resuspended in 150 μL of serial dilutions of anti-DR6 antibodies in FACS buffer. Samples were incubated for 1 hour on ice with occasional agitation and then washed three times. Bound DR6 antibody was visualized with PE-labeled goat F(ab)₂ anti-human Fab (for Dyax Fabs) or anti-mouse IgG specific antibody (for monoclonal antibodies) (Jackson Labs). […] Although both antibodies bind to DR6, the EO4 antibody leads to cell death, whereas 5D10 promotes cell survival. FIG. 5B.

[3] = molecular target: T1, human DR6 (Death Receptor-6, TNFRSF21); assay: cell-based or functional assay
rat DR6 [4] = molecular target: T2, rat DR6; assay: binding to rat DR6 (FIG. 6)

EC50 (rat DR6 [2]) [nM] | binding result (mouse DR6) | binding result (rat DR6 [4]) | Binder | EC50 [1] [nM] | motor neuron survival following sodium arsenite treatment (cell number) [3] [fold]
0.1 | binds | – | M53-E04 (Fab, V domains shown, The format in the assay (Fab or full IgG) is therefore not certain; also called EO4 antibody; E04 mAb) VH: EVQLLESGGGLVQPGGSLRLSCAASGFTFSNYEMSWVRQAPGKGLEWVSSIYSSGGETLYADSVKGRFTISRDNSKNTLYLQMNSLRAEDTAVYYCARDGAADYWGQGTLVTVSS VL: QSELTQPPSASGTPGQWVTISCSGSTSNIGNNYVYWYQQLPGTAPKLLIYTNNQRPSGVPDRFSGSKSGTSASLAISGLRSEDEADYYCATWDDSLYAPVFGGGTKVTVL | 0.05 | –
60 | binds | – | 1P5D10.2 (antibody, V domains shown, Murine monoclonal antibody from a hybridoma; also called DR6 antagonist monoclonal antibody 5D10; anti-DR6 antibody 5D10) VH: EVQLVESGGGLVKPGGSLKLSCAASGFTFSDYYMYWVRQTPEKRLEWVATISDGGLYTYYQDSVKGRFTISRDNAKNNLYLQMSSLKSEDTAMYYCAREDDYDGDFYTMDYWGQGTSVTVSS VL: QIVLTQSPAIMSASPGEKVTITCSASSSVSYMHWFQQKPGTSPKLWIYSTSNLASGVPARFSGSGSGTSYSLTISRMEAEDAATYYCQQRSSYPLTFGAGTKLELK | 0.1 | 3
– | – | binds | 1P5D10.2(Y93A) (antibody, V domains shown, Single point mutant (Y93A, light chain variable domain) of 5D10; also called 5D10Y93A) VH: EVQLVESGGGLVKPGGSLKLSCAASGFTFSDYYMYWVRQTPEKRLEWVATISDGGLYTYYQDSVKGRFTISRDNAKNNLYLQMSSLKSEDTAMYYCAREDDYDGDFYTMDYWGQGTSVTVSS VL: QIVLTQSPAIMSASPGEKVTITCSASSSVSYMHWFQQKPGTSPKLWIYSTSNLASGVPARFSGSGSGTSYSLTISRMEAEDAATYYCQQRSSAPLTFGAGTKLELK | – | –
